Laboratory results as given in patent US20250197486A1 (Novartis, published 2025).

Target: T1, human VEGF165 (human, UniProt P15692 27-191)
T1 construct: mature; The canonical UniProt entry is a longer isoform, so the VEGF165 isoform must be chosen; also called recombinant VEGF165 protein; VEGF-A
Assay: SPR, in vitro, recombinant VEGF165, 37 °C
Protocol: The brolucizumab: VEGF binding parameter values (Table 8) were defined on the basis of a surface plasmon resonance (SPR) in vitro binding experiment with drug and recombinant VEGF165 protein at 37° C. These in vitro measured brolucizumab: VEGF binding parameter values were then scaled similar to ranibizumab to obtain in vivo estimates. […] The scaling is performed such that the koff is kept constant and the kon is divided by the scaling factor.

T1 sequence (P15692 other isoform, or with tags, fused parts or gaps): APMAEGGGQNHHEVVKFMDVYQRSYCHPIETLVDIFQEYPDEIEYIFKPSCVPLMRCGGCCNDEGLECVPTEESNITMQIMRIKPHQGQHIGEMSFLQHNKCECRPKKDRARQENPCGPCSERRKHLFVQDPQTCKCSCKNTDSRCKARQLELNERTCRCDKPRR

Kd: 0.101 nM | koff: 0.00025 s⁻¹ | kon: 2.5e+06 M⁻¹ s⁻¹
B1: brolucizumab (scFv)
scFv: MEIVMTQSPSTLSASVGDRVIITCQASEIIHSWLAWYQQKPGKAPKLLIYLASTLASGVPSRFSGSGSGAEFTLTISSLQPDDFATYYCQNVYLASTNGANFGQGTKLTVLGGGGGSGGGGSGGGGSGGGGSEVQLVESGGGLVQPGGSLRLSCTASGFSLTDYYYMTWVRQAPGKGLEWVGFIDPDDDPYYATWAKGRFTISRDNSKNTLYLQMNSLRAEDTAVYYCAGGDHNSGWGLDIWGQGTLVTVSS
notes: Humanized scFv of about 26 kDa, VL-linker-VH; also called Beovu; drug
